Measured values published in patent EP4624486A1 (Guangdong Raynovent Biotech Co., Ltd., dated 2025).
Bridge positions count the residues as written; N and C are the ends. Square brackets hold non-standard residues; d marks the D form. Ends that are not written are not given here. stapled body chem0195 = not defined here; stapled body chem0208 = not defined here; stapled body chem0209 = not defined here; stapled body chem0212 = not defined here; stapled body chem0214 = not defined here; stapled body chem0215 = not defined here; αMeL = CC(C)C[C@](C)(N)C(=O)O; Orn = NCCC[C@H](N)C(=O)O; Aib = CC(C)(N)C(=O)O

T1: GIP receptor (GIPR) (UniProt P48546 22-466, limits assumed)
T1 sequence (looked up): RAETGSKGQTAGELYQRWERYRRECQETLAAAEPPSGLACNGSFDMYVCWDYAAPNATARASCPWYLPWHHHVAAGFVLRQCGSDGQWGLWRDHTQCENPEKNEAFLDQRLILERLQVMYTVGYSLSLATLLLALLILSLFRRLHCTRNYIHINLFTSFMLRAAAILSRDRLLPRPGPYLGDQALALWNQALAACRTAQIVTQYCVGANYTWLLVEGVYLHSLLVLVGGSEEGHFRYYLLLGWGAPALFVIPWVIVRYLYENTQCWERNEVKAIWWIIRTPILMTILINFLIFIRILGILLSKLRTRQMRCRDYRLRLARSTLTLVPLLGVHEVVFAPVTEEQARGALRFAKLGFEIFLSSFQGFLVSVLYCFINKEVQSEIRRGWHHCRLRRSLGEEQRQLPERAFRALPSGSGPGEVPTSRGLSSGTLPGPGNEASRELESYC

B1: Example 5 (peptide)
peptide: H[Aib]HGTFTSDYSIYLEKKYA[Aib]KFVQWLLEGGPSSGAPPPS-NH2
modifications: bridge 17-21; not fully specified (bridges); also: stapled body (lipidated) structure only in drawing chem0198
B2: Example 28 (peptide)
peptide: Y[Aib]QGTFTSDYSK[αMeL]LDKKAQ[Aib]AFIEFLLEGGPSSGAPPPS-NH2
modifications: linker 12-16 via Ida, Lys, Lys, γGlu, C20 diacid; also: further groups not given here
B3: Example 9 (peptide)
peptide: Y[Aib]QGTFTSDYSI[αMeL]LDKKAQ[Aib]KFIEFLLEGGPSSGAPPPS-NH2
modifications: bridge 17-21; also: stapled body between K17 and K21 is given only as a drawing, not in text
B4: Example 2 (peptide)
peptide: Y[Aib]QGTFTSDYSI[αMeL]LDKKAQ[Aib]AFIKWLLKGGPSSGAPPPS-NH2
modifications: linker 24-28 via stapled body chem0195; reading uncertain; also: further groups not given here
B5: Example 17 (peptide)
peptide: Y[Aib]QGTFTSDYSI[αMeL]LDKKAQ[Aib][Orn]FIEYLLEGGPSSGAPPPS-NH2
modifications: linker 17-21 via stapled body chem0215; reading uncertain; also: further groups not given here
B6: Example 16 (peptide)
peptide: Y[Aib]QGTFTSDYSI[αMeL]LDKKAQ[Aib][dK]FIEYLLEGGPSSGAPPPS-NH2
modifications: linker 17-21 via stapled body chem0214; reading uncertain; also: further groups not given here
B7: Example 43 (peptide)
peptide: Y[Aib]QGTFTSDYSI[αMeL]KDKKAQ[Aib]AFIEYLLEGGPSSGAPPPS-NH2
modifications: linker 14-17 via (2-2-oxoethyl)‑glycine, AEEA, γGlu, 19‑phosphonononadecanoic acid
B8: Example 11 (peptide)
peptide: Y[Aib]QGTFTSDYSI[αMeL]LDKKAQ[Aib]AFIKYLLEGGPSSGAPPPS-NH2
modifications: linker 17-24 via stapled body chem0209; reading uncertain; also: further groups not given here
B9: Example 6 (peptide)
peptide: Y[Aib]QGTFTSDYSI[αMeL]LDKKAQ[Aib]KFIEYLLEGGPSSGAPPPS-NH2
modifications: bridge 17-21; also: stapled body between K17 and K21 is given only as a drawing, not in text
B10: Example 26 (peptide)
peptide: Y[Aib]QGTFTSDYSI[αMeL]LDKKAQ[Aib]KFIEFLLKGGPSSGAPPPS-NH2
modifications: linker 21-28 via Ida, Lys, Lys, γGlu, C20 diacid; also: further groups not given here
B11: Example 10 (peptide)
peptide: Y[Aib]QGTFTSDYSI[αMeL]LDKKAQ[Aib]EFIEYLLEGGPSSGAPPPS-NH2
modifications: linker 17-21 via stapled body chem0208; reading uncertain; also: further groups not given here
B12: Example 4 (peptide)
peptide: H[Aib]HGTFTSDYSIYLEKKYA[Aib]EFVKWLLKGGPSSGAPPPS-NH2
modifications: bridge 24-28; not fully specified (bridges); also: stapled body (lipidated) structure only in drawing chem0197
B13: Example 14 (peptide)
peptide: Y[Aib]QGTFTSDYSI[αMeL]LDKKAQ[Aib]KFIEYLLKGGPSSGAPPPS-NH2
modifications: linker 21-28 via stapled body chem0212; reading uncertain; also: further groups not given here

biological target: GCG receptor (GCGR) (UniProt P47871 26-477, limits assumed); test: cell-based or functional assay
Sequence (P47871 26-477 limits assumed): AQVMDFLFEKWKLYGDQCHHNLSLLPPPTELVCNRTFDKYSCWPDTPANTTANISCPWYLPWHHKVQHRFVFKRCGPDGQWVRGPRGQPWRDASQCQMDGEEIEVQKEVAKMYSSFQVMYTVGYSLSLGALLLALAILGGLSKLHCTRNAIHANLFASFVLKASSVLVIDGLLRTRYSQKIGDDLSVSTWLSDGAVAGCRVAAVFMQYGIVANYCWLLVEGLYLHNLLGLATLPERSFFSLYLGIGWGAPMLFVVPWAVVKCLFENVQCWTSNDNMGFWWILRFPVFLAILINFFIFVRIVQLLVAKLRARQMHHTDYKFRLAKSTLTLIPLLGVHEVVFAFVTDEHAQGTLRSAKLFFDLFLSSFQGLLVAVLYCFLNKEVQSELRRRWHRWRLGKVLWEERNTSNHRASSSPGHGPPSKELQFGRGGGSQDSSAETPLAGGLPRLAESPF

Row | Binder | GCG EC50 (nM); cAMP, agonistic activity
1 | Y[Aib]QGTFTSDYSI[αMeL]LDKKAQ[Aib]KFIEFLLEGGPSSGAPPPS-NH2 (linker 17-21 via Ida, Lys, Lys, γGlu, C20 diacid) [Example 22] | 0.034 nM
2 | B1 | 0.012 nM
3 | Y[Aib]QGTFTSDYSI[αMeL]LDKKAQ[Aib]KFIEFLIEGGPSSGAPPPS-NH2 (linker 17-21 via Ida, Lys, Lys, γGlu, C20 diacid) [Example 23] | 0.096 nM
4 | Y[Aib]QGTFTSDYSI[αMeL]LDKKAQ[Aib]AFIKYLLEGGPSSGAPPPS-NH2 (linker 17-24 via Ida, Lys, Lys, γGlu, C20 diacid) [Example 18] | 0.052 nM
5 | B2 | 0.11 nM
6 | Y[Aib]QGTFTSDYSI[αMeL]LDKKAQ[Aib]KFIEYLLEGGPSSGAPPPS-NH2 (linker 17-21 via Glu, AEEA, AEEA, γGlu, C20 diacid) [Example 12] | 0.007 nM
7 | Y[Aib]QGTFTSDYSI[αMeL]LDKKAQ[Aib]KFIEYLLEGGPSSGAPPPS-NH2 (bridge 17-21; also: further groups not given here) [Example 7] | 0.061 nM
8 | B3 | 0.022 nM
9 | B4 | 0.279 nM
10 | B5 | 0.016 nM
11 | B6 | 0.042 nM
12 | Y[Aib]QGTFTSDYSI[αMeL]LDKKAQ[Aib]AFIEKLLEGGPSSGAPPPS-NH2 (linker 25-28 via Lys, AEEA, γGlu, C20 diacid) [Example 3] | 1.68 nM
13 | B7 | 0.042 nM
14 | Y[Aib]QGTFTSDYSI[αMeL]LDKKAQ[Aib]KFIEYLLEGGPSSGAPPPS-NH2 (bridge 17-21) [Example 8] | 0.012 nM
15 | Y[Aib]QGTFTSDYSI[αMeL]KDKKAQ[Aib]AFIEYLLKGGPSSGAPPPS-NH2 (linker 14-17 via (2-2-oxoethyl)‑glycine, AEEA, γGlu, C20 diacid) [Example 38] | 0.018 nM
16 | Y[Aib]QGTFTSDYSI[αMeL]LDKKAQ[Aib]KFIEYLLEGGPSSGAPPPS-NH2 (linker 17-21 via (2-2-oxoethyl)‑glycine, AEEA, AEEA, γGlu, C20 diacid) [Example 1] | 0.024 nM
17 | B8 | 0.129 nM
18 | B9 | 0.017 nM
19 | B10 | 0.11 nM
20 | B11 | 0.057 nM
21 | Y[Aib]QGTFTSDYSI[αMeL]KDKKAQ[Aib]AFIEYLLEGGPSSGAPPPS-NH2 (linker 14-17 via (2-2-oxoethyl)‑glycine, AEEA, γGlu, C20 diacid) [Example 21] | 0.039 nM
22 | B12 | 0.143 nM
23 | B13 | 0.028 nM

biological target: T1, GIP receptor (GIPR); test: cell-based or functional assay

Row | Binder | GIP-1 EC50 (nM); cAMP, agonistic activity
24 | Y[Aib]QGTFTSDYSI[αMeL]LDKKAQ[Aib]KFIEFLLEGGPSSGAPPPS-NH2 (linker 17-21 via Ida, Lys, Lys, γGlu, C20 diacid) [Example 22] | 0.0004 nM
25 | B1 | 0.007 nM
26 | Y[Aib]QGTFTSDYSI[αMeL]LDKKAQ[Aib]KFIEFLIEGGPSSGAPPPS-NH2 (linker 17-21 via Ida, Lys, Lys, γGlu, C20 diacid) [Example 23] | 0.0004 nM
27 | Y[Aib]QGTFTSDYSI[αMeL]LDKKAQ[Aib]AFIKYLLEGGPSSGAPPPS-NH2 (linker 17-24 via Ida, Lys, Lys, γGlu, C20 diacid) [Example 18] | 0.0004 nM
28 | B2 | 0.0008 nM
29 | Y[Aib]QGTFTSDYSI[αMeL]LDKKAQ[Aib]KFIEYLLEGGPSSGAPPPS-NH2 (linker 17-21 via Glu, AEEA, AEEA, γGlu, C20 diacid) [Example 12] | 0.0001 nM
30 | Y[Aib]QGTFTSDYSI[αMeL]LDKKAQ[Aib]KFIEYLLEGGPSSGAPPPS-NH2 (bridge 17-21; also: further groups not given here) [Example 7] | 0.0003 nM
31 | B3 | 0.0004 nM
32 | B4 | 0.001 nM
33 | B5 | 0.0001 nM
34 | B6 | 0.0001 nM
35 | Y[Aib]QGTFTSDYSI[αMeL]LDKKAQ[Aib]AFIEKLLEGGPSSGAPPPS-NH2 (linker 25-28 via Lys, AEEA, γGlu, C20 diacid) [Example 3] | 0.003 nM
36 | Y[Aib]QGTFTSDYSI[αMeL]LDKKAQ[Aib]KFIEYLLEGGPSSGAPPPS-NH2 (bridge 17-21) [Example 8] | 0.0004 nM
37 | Y[Aib]QGTFTSDYSI[αMeL]KDKKAQ[Aib]AFIEYLLKGGPSSGAPPPS-NH2 (linker 14-17 via (2-2-oxoethyl)‑glycine, AEEA, γGlu, C20 diacid) [Example 38] | 0.0002 nM
38 | Y[Aib]QGTFTSDYSI[αMeL]LDKKAQ[Aib]KFIEYLLEGGPSSGAPPPS-NH2 (linker 17-21 via (2-2-oxoethyl)‑glycine, AEEA, AEEA, γGlu, C20 diacid) [Example 1] | 0.001 nM
39 | B8 | 0.0003 nM
40 | B9 | 0.0005 nM
41 | B10 | 0.0005 nM
42 | B11 | 0.0003 nM
43 | Y[Aib]QGTFTSDYSI[αMeL]KDKKAQ[Aib]AFIEYLLEGGPSSGAPPPS-NH2 (linker 14-17 via (2-2-oxoethyl)‑glycine, AEEA, γGlu, C20 diacid) [Example 21] | 0.0008 nM
44 | B12 | 0.016 nM
45 | B13 | 0.0001 nM

biological target: GLP-1 receptor (GLP-1R) (UniProt P43220 24-463, limits assumed); test: cell-based or functional assay

Row | Binder | GLP-1 EC50 (nM); cAMP, agonistic activity
46 | Y[Aib]QGTFTSDYSI[αMeL]LDKKAQ[Aib]KFIEFLLEGGPSSGAPPPS-NH2 (linker 17-21 via Ida, Lys, Lys, γGlu, C20 diacid) [Example 22] | 0.009 nM
47 | B1 | 0.029 nM
48 | Y[Aib]QGTFTSDYSI[αMeL]LDKKAQ[Aib]KFIEFLIEGGPSSGAPPPS-NH2 (linker 17-21 via Ida, Lys, Lys, γGlu, C20 diacid) [Example 23] | 0.007 nM
49 | Y[Aib]QGTFTSDYSI[αMeL]LDKKAQ[Aib]AFIKYLLEGGPSSGAPPPS-NH2 (linker 17-24 via Ida, Lys, Lys, γGlu, C20 diacid) [Example 18] | 0.008 nM
50 | B2 | 0.011 nM
51 | Y[Aib]QGTFTSDYSI[αMeL]LDKKAQ[Aib]KFIEYLLEGGPSSGAPPPS-NH2 (linker 17-21 via Glu, AEEA, AEEA, γGlu, C20 diacid) [Example 12] | 0.002 nM
52 | Y[Aib]QGTFTSDYSI[αMeL]LDKKAQ[Aib]KFIEYLLEGGPSSGAPPPS-NH2 (bridge 17-21; also: further groups not given here) [Example 7] | 0.005 nM
53 | B3 | 0.005 nM
54 | B4 | 0.009 nM
55 | B5 | 0.001 nM
56 | B6 | 0.002 nM
57 | Y[Aib]QGTFTSDYSI[αMeL]LDKKAQ[Aib]AFIEKLLEGGPSSGAPPPS-NH2 (linker 25-28 via Lys, AEEA, γGlu, C20 diacid) [Example 3] | 0.025 nM
58 | Y[Aib]QGTFTSDYSI[αMeL]LDKKAQ[Aib]KFIEYLLEGGPSSGAPPPS-NH2 (bridge 17-21) [Example 8] | 0.004 nM
59 | Y[Aib]QGTFTSDYSI[αMeL]KDKKAQ[Aib]AFIEYLLKGGPSSGAPPPS-NH2 (linker 14-17 via (2-2-oxoethyl)‑glycine, AEEA, γGlu, C20 diacid) [Example 38] | 0.002 nM
60 | Y[Aib]QGTFTSDYSI[αMeL]LDKKAQ[Aib]KFIEYLLEGGPSSGAPPPS-NH2 (linker 17-21 via (2-2-oxoethyl)‑glycine, AEEA, AEEA, γGlu, C20 diacid) [Example 1] | 0.009 nM
61 | B8 | 0.006 nM
62 | B9 | 0.005 nM
63 | B10 | 0.014 nM
64 | B11 | 0.009 nM
65 | Y[Aib]QGTFTSDYSI[αMeL]KDKKAQ[Aib]AFIEYLLEGGPSSGAPPPS-NH2 (linker 14-17 via (2-2-oxoethyl)‑glycine, AEEA, γGlu, C20 diacid) [Example 21] | 0.02 nM
66 | B12 | 0.023 nM
67 | B13 | 0.001 nM
